For experiment [1], the target named is T1, human CD40 extracellular domain expressed with a C-terminal myc-myc-hexahistidine tag (human).
T1 construct: also called hCD40-MMH; hCD40-mmH
Description: ELISA, blocks 40 nM hCD40-mmH binding to coated 9His-hCD40L. Here is the method:
In the blocking assay, 9His-hCD40L was passively absorbed at a concentration of 5 μg/mL in PBS on a 96-well microtiter plate overnight at 4° C. […] In a separate 96-well microtiter plate, a fixed amount of 40 nM hCD40-mmH was pre-mixed with one of the following antibodies, at concentrations ranging from 977 pM to 1 μM in PBS+0.5% BSA: (1) anti-CD40×CD40 bispecific antibodies (REGN16431, REGN16432, REGN16634, and REGN16335); (2) parental anti-CD40 mAbs (bivalent antibodies comprising 2 fragment antigen-binding [Fab] arms identical to one of anti-CD40 Fab of anti-CD40×CD40 antibodies); (3) anti-CD40×Irrelevant antibodies (bivalent antibodies that incorporate one Fab arm identical to one of anti-CD40 Fab of anti-CD40×CD40 antibodies and another Fab arm specific to an irrelevant antigen); and (4) human IgG4 with Fc mutation isotype control antibodies (REGN7540 and REGN4513). The fixed concentration of hCD40-mmH was selected to be near the concentration (EC₅₀ value) that generated 50% of the maximal binding to the plate-adhered 9His-hCD40L. After one-hour incubation, the antibody-antigen complexes were transferred to the microtiter plate coated with 9His-hCD40L. After one hour incubation at room temperature, the plates were washed, and plate-bound hCD40-mmH protein was detected with horseradish peroxidase (HRP) conjugated goat anti-c-Myc antibody. The plates were then developed using TMB substrate solution (BD Biosciences) according to the manufacturer's recommended procedure and the absorbance at 450 nm (OD₄₅₀) was measured on a SpectraMax i3× plate reader.
Binding data were analyzed using a sigmoidal (four-parameter logistic) dose-response model with GraphPad Prism™ software. […] The percent blocking of tested antibodies at the highest tested concentration ([…]) was calculated based on the formula shown below: […]

The target of experiment [2] is T2, human CD40 expressed on cells (human, UniProt P25942 21-277). Nature of the experiment: cell-based or functional assay.
T2 sequence (P25942 21-277): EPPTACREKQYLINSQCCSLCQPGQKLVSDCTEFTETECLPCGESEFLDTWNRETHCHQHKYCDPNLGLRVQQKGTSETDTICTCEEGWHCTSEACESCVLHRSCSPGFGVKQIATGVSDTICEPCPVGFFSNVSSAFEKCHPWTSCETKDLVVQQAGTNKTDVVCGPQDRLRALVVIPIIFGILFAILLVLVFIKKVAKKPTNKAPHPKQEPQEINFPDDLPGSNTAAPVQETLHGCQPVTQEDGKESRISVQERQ
Experiment [3] addresses T2, human CD40 expressed on cells. Description: cell-based or functional assay. This is another data set of the same source.
For experiment [4] the target is unchanged. Description: cell-based or functional assay. The source holds these as a separate data set.
Experiment [5] deals with T1, human CD40 extracellular domain …. Nature of the experiment: SPR 37C, captured mAb. The method, then: (§1) The equilibrium dissociation constants (KD) for anti-CD40 bivalent and bispecific monoclonal antibodies (mAbs) were determined using a real-time surface plasmon resonance (SPR)-based Biacore 4000 biosensor. All binding studies were performed in 10 mM HEPES, 150 mM NaCl, 3 mM EDTA, and 0.05% v/v surfactant Tween-20, pH 7.4 (HBS-ET) running buffer at 25° C. and 37° C. The Biacore CM5 sensor surface was first derivatized by amine coupling with a monoclonal mouse anti-human Fc antibody (REGN2567) to capture anti-CD40 bivalent parental and anti-CD40×CD40 bispecific antibodies. Different concentrations of CD40 reagents, human CD40 extracellular domain expressed with a C-terminal myc-myc-hexahistidine tag (“hCD40-MMH”; REGN3094; SEQ ID NO: 53), monkey CD40 extracellular domain expressed with a C-terminal myc-myc-hexahistidine tag (“mfCD40-MMH”; REGN3097; SEQ ID NO: 54), and mouse CD40 extracellular domain expressed with a C-terminal myc-myc-hexahistidine tag (“mCD40-MMH”; REGN3098; SEQ ID NO: 55), at concentrations ranging from 3.7 nM to 100 nM or 3.3 nM to 90 nM in a series of 3-fold dilutions prepared in HBS-ET running buffer were injected at a flow rate of […] for 4 minutes or […] for 5 minutes. The dissociation of different CD40 reagents bound to anti-CD40 bivalent parental and anti-CD40×CD40 bispecific antibodies was monitored for 10 minutes in HBS-ET running buffer. At the end of each cycle, the anti-CD40 bivalent parental and anti-CD40×CD40 bispecific antibodies capture surface was regenerated using a 12 sec injection of 20 mM H₃PO₄.
(§2) The association rate (ka) and dissociation rate (kd) were determined by fitting the real-time binding sensorgrams to a 1:1 binding model with mass transport limitation using Scrubber 2.0c curve-fitting software. Binding dissociation equilibrium constant (KD) and dissociative half-life (t½) were calculated from the kinetic rates as: KD (M)=kd/kₐ, and t_{1/2} (min)=[ln(2)/(60*kd)].

Experiment [6] has the same target. Nature of the experiment: SPR 25C, captured mAb. Here is the method: as §1, §2
Experiment [7] has as its target T2, human CD40 expressed on cells. Description: cell-based or functional assay. The source holds these as a separate data set.
For experiment [8] the target is unchanged. Nature of the experiment: cell-based or functional assay. This is another data set of the same source.
Experiment [9] has the same target. Nature of the experiment: cell-based or functional assay. The source holds these as a separate data set.
Experiment [10] shares this target. Nature of the experiment: cell-based or functional assay. The source holds these as a separate data set.
The target is the same in experiment [11]. Nature of the experiment: cell-based or functional assay. This is another data set of the same source.
The target is the same in experiment [12]. Description: cell-based or functional assay. This is another data set of the same source.

T1 sequence (chain, as listed by the source limits assumed): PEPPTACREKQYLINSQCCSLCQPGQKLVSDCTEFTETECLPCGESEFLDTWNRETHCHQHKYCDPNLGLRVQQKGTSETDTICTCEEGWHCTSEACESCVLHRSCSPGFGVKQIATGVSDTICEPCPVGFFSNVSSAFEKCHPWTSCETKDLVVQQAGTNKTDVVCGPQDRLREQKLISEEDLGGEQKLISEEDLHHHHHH

B1: REGN16431 (bispecific antibody, human IgG4 S228P, kappa)
heavy 1: QLQLQESGPGLVRPSETLSLTCSVSGASMNTNNYYWGWIRQPPGKGLEWIGSGYYNGNTYYNPSLKSRVTISVDTSKNQFSLKLNSVTAADTAVYYCARQTPPRIIGSPNIWGQGTMVTVSSASTKGPSVFPLAPCSRSTSESTAALGCLVKDYFPEPVTVSWNSGALTSGVHTFPAVLQSSGLYSLSSVVTVPSSSLGTKTYTCNVDHKPSNTKVDKRVESKYGPPCPPCPAPPVAGPSVFLFPPKPKDTLMISRTPEVTCVVVDVSQEDPEVQFNWYVDGVEVHNAKTKPREEQFNSTYRVVSVLTVLHQDWLNGKEYKCKVSNKGLPSSIEKTISKAKGQPREPQVYTLPPSQEEMTKNQVSLTCLVKGFYPSDIAVEWESNGQPENNYKTTPPVLDSDGSFFLYSRLTVDKSRWQEGNVFSCSVMHEALHNHYTQKSLSLSLGK
heavy 2: EVQLVESGGGLVQPGGSLRLSCAASGFTFGSYGMAWVRQAPGKGLEWVSAISGSGDYTNYADSVKRRFTISRDNSKNTLYLQMSSLRAEDTAVYYCAKEKTGTTGYLYSGMDVWGQGTTVTVSSASTKGPSVFPLAPCSRSTSESTAALGCLVKDYFPEPVTVSWNSGALTSGVHTFPAVLQSSGLYSLSSVVTVPSSSLGTKTYTCNVDHKPSNTKVDKRVESKYGPPCPPCPAPPVAGPSVFLFPPKPKDTLMISRTPEVTCVVVDVSQEDPEVQFNWYVDGVEVHNAKTKPREEQFNSTYRVVSVLTVLHQDWLNGKEYKCKVSNKGLPSSIEKTISKAKGQPREPQVYTLPPSQEEMTKNQVSLTCLVKGFYPSDIAVEWESNGQPENNYKTTPPVLDSDGSFFLYSRLTVDKSRWQEGNVFSCSVMHEALHNRFTQKSLSLSPGK
light: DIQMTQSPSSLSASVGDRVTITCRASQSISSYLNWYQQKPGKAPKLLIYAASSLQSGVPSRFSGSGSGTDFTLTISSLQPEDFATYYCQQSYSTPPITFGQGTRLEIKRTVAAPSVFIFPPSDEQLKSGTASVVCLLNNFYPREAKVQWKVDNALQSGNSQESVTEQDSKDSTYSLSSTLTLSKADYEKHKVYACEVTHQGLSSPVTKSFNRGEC
As for B1, the “% Blocking at highest mAb concentration” value in experiment [1] worked out at 93%. Further, in experiment [2], the “% max blockade relative to no mAb, IL-10, B cells, donor 1” value was found to be 80.7%; the “% max blockade relative to no mAb, IL-10, B cells, donor 2” value was 86.9%; the “% max blockade relative to no mAb, IL-10, B cells, donor 3” value came out at 89.3%. In addition, in experiment [3], the “% max blockade relative to no mAb, IL-6, B cells, donor 1” value was 84%; the “% max blockade relative to no mAb, IL-6, B cells, donor 2” value was 92.7%; the “% max blockade relative to no mAb, IL-6, B cells, donor 3” value was found to be 92.7%. Further, in [4], the “IC50, NFkB-luc Ramos, 500 pM hCD40L” value worked out at 8.54e-11 M; the “Max % activation, NFkB-luc Ramos, no ligand” value stood at 6%; the “Max % inhibition, NFkB-luc Ramos, 500 pM hCD40L” value was found to be 90%. Further, the “100 nM Ag Bound (RU)” value in experiment [5] turned out to be 61.2 RU. Also, the “100 nM Ag Bound (RU)” value in experiment [6] was 61.2 RU. In [7], the “% max blockade relative to no mAb, TNFa, B cells, donor 1” value is 44.7%; the “% max blockade relative to no mAb, TNFa, B cells, donor 2” value was found to be 74.1%; the “% max blockade relative to no mAb, TNFa, B cells, donor 3” value came to 70.4%. Further, in experiment [8], the “IC50, NFkB-luc Raji, 900 pM hCD40L” value is 1.07e-10 M; the “Max % activation, NFkB-luc Raji, no ligand” value was 13%; the “Max % inhibition, NFkB-luc Raji, 900 pM hCD40L” value turned out to be 82%. In addition, in [9], the “IC50, NFkB-luc THP-1, 10 nM hCD40L” value was 0.287 nM; the “Max % activation, NFkB-luc THP-1, no ligand” value stood at 2%; the “Max % inhibition, NFkB-luc THP-1, 10 nM hCD40L” value stood at 98%.

B2: REGN16335 (bispecific antibody, human IgG4 S228P, kappa)
heavy 1: EVQLVESGGGLVQPGGSLRLSCAASGFTFSSYAMNWVRQAPGKGLEWVSIISGTIGKTYYADSVKGRFTISRDNSKNTLYLQMNSLRGEDTAVYYCAKDTERDITGSPFDYWGQGTLVTVSSASTKGPSVFPLAPCSRSTSESTAALGCLVKDYFPEPVTVSWNSGALTSGVHTFPAVLQSSGLYSLSSVVTVPSSSLGTKTYTCNVDHKPSNTKVDKRVESKYGPPCPPCPAPGGGGPSVFLFPPKPKDTLMISRTPEVTCVVVDVSQEDPEVQFNWYVDGVEVHNAKTKPREEQFNSTYRVVSVLTVLHQDWLNGKEYKCKVSNKGLPSSIEKTISKAKGQPREPQVYTLPPSQEEMTKNQVSLTCLVKGFYPSDIAVEWESNGQPENNYKTTPPVLDSDGSFFLYSRLTVDKSRWQEGNVFSCSVMHEALHNHYTQKSLSLSLGK
heavy 2: EVQLVESGGGLVQPGGSLRLSCAASGFTFGSYGMAWVRQAPGKGLEWVSAISGSGDYTNYADSVKRRFTISRDNSKNTLYLQMSSLRAEDTAVYYCAKEKTGTTGYLYSGMDVWGQGTTVTVSSASTKGPSVFPLAPCSRSTSESTAALGCLVKDYFPEPVTVSWNSGALTSGVHTFPAVLQSSGLYSLSSVVTVPSSSLGTKTYTCNVDHKPSNTKVDKRVESKYGPPCPPCPAPGGGGPSVFLFPPKPKDTLMISRTPEVTCVVVDVSQEDPEVQFNWYVDGVEVHNAKTKPREEQFNSTYRVVSVLTVLHQDWLNGKEYKCKVSNKGLPSSIEKTISKAKGQPREPQVYTLPPSQEEMTKNQVSLTCLVKGFYPSDIAVEWESNGQPENNYKTTPPVLDSDGSFFLYSRLTVDKSRWQEGNVFSCSVMHEALHNRFTQKSLSLSPGK
light: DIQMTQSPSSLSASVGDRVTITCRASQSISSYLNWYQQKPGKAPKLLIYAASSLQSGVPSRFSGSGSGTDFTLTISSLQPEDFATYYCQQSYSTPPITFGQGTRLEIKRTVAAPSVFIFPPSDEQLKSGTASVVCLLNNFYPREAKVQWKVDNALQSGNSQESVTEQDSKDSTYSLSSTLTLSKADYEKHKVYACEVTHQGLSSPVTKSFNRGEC
For B2, in [10], the “% max blockade relative to no mAb, IL-6, assay #2, donor 1” value came out at 88.4% and the “% max blockade relative to no mAb, IL-6, assay #2, donor 2” value came out at 87%. In experiment [1], the “% Blocking at highest mAb concentration” value is 96%. Besides, in [2], the “% max blockade relative to no mAb, IL-10, B cells, donor 1” value turned out to be 78.5%; the “% max blockade relative to no mAb, IL-10, B cells, donor 2” value was found to be 93.6%; the “% max blockade relative to no mAb, IL-10, B cells, donor 3” value was found to be 89.8%. Besides, in experiment [11], the “% max blockade relative to no mAb, IL-10, assay #2, donor 1” value was determined as 88.5% and the “% max blockade relative to no mAb, IL-10, assay #2, donor 2” value came out at 87.8%. Also, in experiment [3], the “% max blockade relative to no mAb, IL-6, B cells, donor 1” value amounted to 83.2%; the “% max blockade relative to no mAb, IL-6, B cells, donor 2” value came out at 91.4%; the “% max blockade relative to no mAb, IL-6, B cells, donor 3” value was 91.4%. For the same molecule, in experiment [4], the “IC50, NFkB-luc Ramos, 500 pM hCD40L” value came to 3.86e-11 M; the “Max % activation, NFkB-luc Ramos, no ligand” value worked out at 5%; the “Max % inhibition, NFkB-luc Ramos, 500 pM hCD40L” value was 93%. In [12], the “% max blockade relative to no mAb, TNFa, assay #2, donor 1” value stood at 62.4% and the “% max blockade relative to no mAb, TNFa, assay #2, donor 2” value was 52.5%. For the same molecule, in experiment [7], the “% max blockade relative to no mAb, TNFa, B cells, donor 1” value is 45%; the “% max blockade relative to no mAb, TNFa, B cells, donor 2” value worked out at 64.7%; the “% max blockade relative to no mAb, TNFa, B cells, donor 3” value is 61.6%. In addition, in [8], the “IC50, NFkB-luc Raji, 900 pM hCD40L” value was 4.94e-11 M; the “Max % activation, NFkB-luc Raji, no ligand” value was found to be 9%; the “Max % inhibition, NFkB-luc Raji, 900 pM hCD40L” value amounted to 102%. For the same molecule, in [9], the “IC50, NFkB-luc THP-1, 10 nM hCD40L” value worked out at 0.221 nM; the “Max % activation, NFkB-luc THP-1, no ligand” value amounted to 3%; the “Max % inhibition, NFkB-luc THP-1, 10 nM hCD40L” value came to 98%.

For the origin of these results see patent US20250276092A1 (Regeneron, published 2025).
